Results: PMC10249358, “Elucidation of Short Linear Motif-Based Interactions of the FERM Domains of Ezrin, Radixin, Moesin, and Merlin” (Biochemistry, 2023)

Target: moesin FERM domain, P26038
Assay: FP
Conditions: modification not given

moesin FERM domain, P26038, sequence (P26038 2-295): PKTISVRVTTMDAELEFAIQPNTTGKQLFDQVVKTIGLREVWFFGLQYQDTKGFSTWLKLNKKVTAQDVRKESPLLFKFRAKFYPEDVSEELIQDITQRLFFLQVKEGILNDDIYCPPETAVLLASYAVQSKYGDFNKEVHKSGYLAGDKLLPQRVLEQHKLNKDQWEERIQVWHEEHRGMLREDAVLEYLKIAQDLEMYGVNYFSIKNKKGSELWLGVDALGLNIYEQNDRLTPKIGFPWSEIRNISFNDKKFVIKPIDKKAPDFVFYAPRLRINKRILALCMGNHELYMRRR

Binder | Kd [nM]
LEAADFYDFRSSYPDH | 2300
TNGYYSVNTFKEHHST | 100
LEFADFYDFRSSAPDH | 2800
LEFADAYDFRSSYPDH | 85000
TNGAYSVNTFKEHHST | 110
LEFADFYAFRSSYPDH | 50000
